Experimental data from paper PMC9170038, “Crowdsourced RNA design discovers diverse, reversible, efficient, self-contained molecular switches”.

Biological target: MS2 coat protein, dlFG mutant (Escherichia phage MS2, UniProt P03612, del68-81insG)
Assay: 4 mM Mg2+; no ligand; RNA-MaP array; 100 mM Tris-HCl pH 7.5, 80 mM KCl, 4 mM MgCl2, 0.1 mg/mL BSA, 1 mM DTT, 0.01 mg/mL yeast tRNA, 0.01% Tween-20; protein 1.5 nM to 3 uM; 37 C (Table S3)
Details: chain copies: 2; label: tethered by stalled RNA polymerase

B1: Eterna 7682834 (Same State - Tryptophan A) (ssRNA)
RNA: UGUCAUGGAAACAUGAACGUUGAUGUUCGACGAGGACCGGUACGGCCGCCACUCGAGUAAUAGUCAGUGAUGUUGACUUGUUUAA
  Kd: > 3000 nM

B2: Eterna 7722469 (Exclusion - FMN A) (ssRNA)
RNA: AUUUAGACGAGUGAUGUUCGUGUUAUUACAGAGGAUAUGCGUAAUUGCAGAAGGCUGUAUUUAUAUAUGUUAUGUAGUUUUAAAA
  Kd: > 3000 nM

B3: Eterna 7682758 (Exclusion - Arginine A) (ssRNA)
RNA: AAUUUACAUUAAUUAUUUAAAGGUUCAGAAGGAGCGUGAAUUAACACAGGUAGGUCGCUGAGCGAGUGAUGUUCGCUAUAUACUA
  Kd: > 3000 nM

B4: Eterna 7681870 (Exclusion - Theophylline B) (ssRNA)
RNA: CCUAUCUCAUACGAUACCAGUCAACGAGUGAUGUUCGAAUAAAUAAAUUUGCCAAAUAAUGACCCUUGGCAGCGUAUGGGAUAGG
  Kd: > 3000 nM

B5: Eterna 7709711 (Same State - Tryptophan B) (ssRNA)
RNA: UAUAUAGUGACGGCCGCCACUAUUGUGAUGUAGUUGUUAGAGUGAUGUUUUGUUGUUUGAUUUUGUAGGACCGGGUUAUAUGUUA
  Kd: > 3000 nM

B6: Eterna 7714851 (Same State - Theophylline B) (ssRNA)
RNA: AGAACUGUCUGAGAUACCAGCCAGGAAGUGAUGUUUCCAGCUCCACGAAAGUGGAGCCAUGGCCCUUGGCAGCUCAGACAGUUCA
  Kd: > 3000 nM

B7: Eterna 7734632 (Exclusion - FMN B) (ssRNA)
RNA: CAUACGCAUGGAGGAUAUGAGAUUUUUCAUAUUAUUUUUUAUUCUCAGUGAUGUUGGGAUUUAUAAUCAGAAGGCCAUGUGUAUG
  Kd: > 3000 nM

B8: Eterna 7687729 (Same State - FMN B) (ssRNA)
RNA: AUUUUUAACUGAGGAUAUCGAAUUUAUGUAGUGAUGUUACUUUAAAUUAAAAUUUUAAUUUCUUAACGAGAAGGCAGAAUAAUUA
  Kd: > 3000 nM

B9: Eterna 7739921 (Exclusion - Arginine B) (ssRNA)
RNA: UGAUAGGACAGAAGGAGCGGCAGUGAUGUUGCCAAAAGGGUAAGGUGUCAAAAGACACCCUGCCAGGUAGGUCGCUGUCCUAUCU
  Kd: > 3000 nM

B10: Eterna 7685224 (Exclusion - Theophylline B) (ssRNA)
RNA: AAUUUAUUAACUGAUACCAGACUUAAUUAAUUGUAAAUUACUAGUGAUGUUAGUGAUUCUGUCCCUUGGCAGCAGUAUUUAUUAA
  Kd: > 3000 nM

B11: Eterna 7712196 (Same State - FMN B) (ssRNA)
RNA: AGAGUUAUGCGAGGAUAUGCAGUUAGUACUCAAAGAGUACUAACGCAGAGUGAUGUUCUGUGAAACGCAGAAGGUGCAUAACUCA
  Kd: > 3000 nM

B12: Eterna 7684757 (Exclusion - Tryptophan B) (ssRNA)
RNA: AAUAAAAUCACGGCCGCCACUGAUUACCAUAUUAGGAGUGAUGUUCCUAUGACUAUAUAAUUUAACAGGACCGGGUGAAUAUUUA
  Kd: > 3000 nM

B13: Eterna 7687231 (Exclusion - Arginine A) (ssRNA)
RNA: AAUGUACAAGUGAUGUUUGUACUUUCCGAAGGAGCGUCUAAUAAGACAGGUAGGUCGCGGAUUCUCUAAAUUAUCAGGUCAUUAA
  Kd: > 3000 nM

B14: Eterna 7723566 (Exclusion - Tryptophan A) (ssRNA)
RNA: AUGUCGUUAUAGUGAGUGAUGUUCACUGUGCGAGGACCGGUACGGCCGCCACUCGAGAGUGGUGGACACUGAGUCACUCUGACAC
  Kd: > 3000 nM

B15: Eterna 7685253 (Same State - Tryptophan B) (ssRNA)
RNA: AGACGCCAGUCGGCCGCCACUCACAGCAGUGAUGUUGCUGAAAAUCUAGAAGAGUGAUGUUCUUAGAGGACCGGGACUCCAGUCG
  Kd: > 3000 nM

## AAAGCAUGACGCGCUUUCAAGCGUGGCGAGUAUAAA (ssRNA) [Eterna 2 (No-binding control)]
  Kd: > 3000 nM

B16: Eterna 1268 (Exclusion - Tryptophan B) (ssRNA)
RNA: AAGCCAUACUCGGCCGCCACUUACUUCGUUGCAGUGAUGUUGCACACGAAUCCGUCAUAGCAAAUAAGGACCGGGAGAUAUACCG
  Kd: > 3000 nM

B17: Eterna 6398784 (Exclusion NG 1) (ssRNA)
RNA: CCUGCACCUCAAGGAUAUCCAGUCGAAACGACUGGAGAAGGUGAGGAUCACCCACCUAGCCUGACGAAAGUCAGGCAUGCAGGA
  Kd: 14.4 nM

B18: Eterna 7672999 (Same State - Tryptophan B) (ssRNA)
RNA: UGGUACAUGGCGGCCGCCACUUCACGUAAAAUAAAAACUUGAGGAUCACCCAAGUAAUAAGUUGGGAGGACCGGGUCAUGUACCU
  Kd: 19 nM

B19: Eterna 7670643 (Exclusion - Theophylline B) (ssRNA)
RNA: UGACAUUGCUCAGAUACCAGACGUGAGCAUCAGCCAUGUGCCAACAAGUACAAAAUAAAUGUCCCUUGGCAGCUGAGCAAUGUCU
  Kd: 16.6 nM

B20: Eterna 6108976 (Same State NG 2) (ssRNA)
RNA: GUAGCAUACCGAGGAUAUUCAUAUAAUAAAUAAACAUGAGGACCACCCAUGUGGCGAAAGCCUUGGGAGAAGGCGGAAUGCUAC
  Kd: 1050 nM

B21: Eterna 6423537 (Small Loop Exclusion NG 1) (ssRNA)
RNA: GAGUAGAUCCGAGGAUAUACAAUCCGGAAACGGUACAUGAGGAUCACCCAUGUAGAAGGCGGAUCUACAGGUACUAAAGUACCU
  Kd: 5.63 nM

B22: Eterna 7734297 (Exclusion - Theophylline B) (ssRNA)
RNA: GGCCGAUGGUGCGAUACCAGCUUGAGUGUACUGGCCAGGUACAUGAGGAUCACCCAUGUAAGCCCUUGGCAGCGCGUCAGAGGCC
  Kd: 10.6 nM

B23: Eterna 12520 (Exclusion 2) (ssRNA)
RNA: AAACAGGGAGGAUAUACAUAGAUCCUCUAACCUAAUUGGUCACAUGAGGAUCACCCAUGUAGAAGGCCCUUAGG
  Kd: 11.8 nM

B24: Eterna 6393566 (Inverted Small Loop Exclusion NG 3) (ssRNA)
RNA: AGCACGAAAGUGCAACGAUGUACGAGAAGGACAUGAGGAUCACCCAUGUUGCUGUAACUGCUUAUGUAGGAUAUCGUACAUCGA
  Kd: 5.14 nM

## UUUUCAGAACUUAUUU (ssRNA) [Eterna 3 (ShortRNAControl)]
  Kd: > 3000 nM

B25: Eterna 12408 (Exclusion 4) (ssRNA)
RNA: CAUUUGUGAGGAUAUCAGGUGUGCUAGCGUACUGGUACAUCUGAGAAGGCACAUGAGGAUCACCCAUGUUUCUU
  Kd: 15.8 nM

B26: Eterna 7754813 (Same State - Tryptophan B) (ssRNA)
RNA: UAGUAGCUCUCGGCCGCCACUCCUCAGUGAUGUUGAGAUAUUAAGAGCCAAUUGGCUCAUAUAAAGAGGACCGGGAGAGCUACAU
  Kd: > 3000 nM

B27: Eterna 1541 (Same State - FMN A) (ssRNA)
RNA: AAGUGGGAACGGCCCAAUAAAGUGUUUGUCAAGGAUAUUAUUCACAUAAGAAGGUGACAGACCACCUCCGGAGUGAUGUUUUGGA
  Kd: > 3000 nM

B28: Eterna 12456 (Exclusion 4) (ssRNA)
RNA: GUAAAGUGAGGAUAUGGUAAAUUAAUUAUUAAUUAAUUAAUCCAGAAGGCACAUGAGGAUCACCCAUGUAAUUG
  Kd: 24.8 nM

B29: Eterna 6102128 (Same State NG 3) (ssRNA)
RNA: AAAACAUGAGGAUCACCCAUGUAAAUAUCGGUUAAUUGUUGUGAGGAUAUACUAAAUUUUAAGAAGUAGAAGGCACUGGGUACA
  Kd: 24.4 nM

B30: Eterna 12517 (Exclusion 2) (ssRNA)
RNA: AAUGGCUGAGGAUAUACACUCACGUCUAAAAGGUUCAAAUGACAUGAGGAUCACCCAUGUAGAAGGCAGCCCGA
  Kd: 103 nM

B31: Eterna 6147986 (Exclusion NG 1) (ssRNA)
RNA: GCAAUGUGAUAAGGAUAUCCAAUGGCAUCCCUAGGAGAAGGUAUCACAUGAGGAUCACCCAUGUGAAGGACGGGUUAUCGCAAA
  Kd: 54.1 nM

B32: Eterna 6451279 (Small Loop Same State NG 3) (ssRNA)
RNA: ACAUGAGGAUCACCCAUGUAAAGCGAGGAUAUUUCACUGCACAUGAGGUUCGCCCAUGUUCUGCGGAAGAAGGUGCAAAUAAUU
  Kd: 82.6 nM

B33: Eterna 15907 (Sensor v3, turn-off variant 2) (ssRNA)
RNA: AGUAACCGUCACGAAAGUGAUGGUUACGCAAGUAAAUGUACAUGAGGAUCACCCAUGUCCUCAUUUGCUCGUCUUAU
  Kd: 204 nM

B34: Eterna 5942428 (Same State NG 3) (ssRNA)
RNA: GUGGUCAGACAUGAGGAUCACCCAUGUGGAAUAAAUAACACACAGGAUAUCAAAUAUAAAAUAUAUGAGAAGGGUGGAUUGGUG
  Kd: 387 nM

B35: Eterna 14907 (Exclusion 2) (ssRNA)
RNA: GUGUAGUUAGGAUAUGCUGGAAUCUAGCGAAGCUAGGUUCCACAUGAGGAUCACCCAUGUAGAAGGGACUACAC
  Kd: 253 nM

B36: Eterna 7643338 (Exclusion - Arginine B) (ssRNA)
RNA: UUAUAUUAUCGAAGGAGCGUCACAUGAGGAUCACCCAUGUACAUGAGGAUCACCCAUGUGUGGCAGGUAGGUCGCGAUAUAUAAC
  Kd: 226 nM

B37: Eterna 6453430 (Inverted Small Loop Exclusion NG 3) (ssRNA)
RNA: AGGUAAGACUUAAUUGUGCUGGUGAGAAGGCAAAUGGUUGUGAUUAACAUGAGGAUCACCCAUGUUGAGGAUAUCAUCGGUAUC
  Kd: 500 nM

B38: Eterna 6148811 (Same State NG 2) (ssRNA)
RNA: UGAAUCAAUACAGGAUAUGGUGACGCACAUGAGGAUCACCCAUGUCCGCAGCGUGCUCAGCACGCCCAGAAGGGUAUUGAUCCG
  Kd: 816 nM

B39: Eterna 7682723 (Same State - Arginine A) (ssRNA)
RNA: AAAUUCUUUUUUUUAUUUAACUUUUCAGAAGGAGCGUGGUAGUUCACAGGUAGGUCGCUGAAUUUUGGACUAGUGAUGUUAGUUA
  Kd: > 3000 nM

B40: Eterna 7683541 (Same State - FMN B) (ssRNA)
RNA: UAUUAAUUGUCAGGAUAUCGUAAACGAGUGAUGUUCGUAUAUCGACGAUAGUCGAUUCUAUCUAAACGAGAAGGGACAUUAUUUA
  Kd: > 3000 nM
